According to patent publication US20180147257A1 (Stanford University, published 2018):

Biological target: T1, PDL1 displayed on yeast cells (UniProt Q9NZQ7 19-238, limits assumed)
T1 construct: Control for the yeast display staining; also called closest CD277 structural homologue
Assay: FACS staining of yeast displaying PDL1 with purified LTβR-IgG1 fusion protein

T1 sequence (Q9NZQ7 19-238 limits assumed): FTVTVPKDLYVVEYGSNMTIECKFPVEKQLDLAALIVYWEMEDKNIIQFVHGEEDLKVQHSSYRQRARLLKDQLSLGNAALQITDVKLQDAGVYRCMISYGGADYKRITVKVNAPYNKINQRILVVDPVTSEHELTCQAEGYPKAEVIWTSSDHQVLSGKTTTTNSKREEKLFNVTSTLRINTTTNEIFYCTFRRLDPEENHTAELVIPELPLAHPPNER

B1: LTβR-IgG1 fusion protein (Fc fusion, UniProt P36941 31-227, looked up)
chain: QAVPPYASENQTCRDQEKEYYEPQHRICCSRCPPGTYVSAKCSRIRDTVCATCAENSYNEHWNYLTICQLCRPCDPVMGLEEIAPCTSKRKTQCRCQPGMFCAAWALECTHCELLSDCPPGTEAELKDEVGKGNNHCVPCKAGHFQNTSSPSARCQPHTRCENQGLVEAAPGTAQSDTTCKNPLEPLPPEMSGTMLM
notes: Purified fusion protein; also called LTBR-IgG1 fusion protein; not shown: IgG1 part of the fusion
binding result: no binding
